Source: paper PMC3479203

Molecular target: C-terminal SPA-tagged RpoB fusion protein (B. subtilis) (UniProt P37870)
Assay: affinity purification with mass spectrometry

Chain of UniProt P37870 (P37870 whole entry, the tested form may be a part): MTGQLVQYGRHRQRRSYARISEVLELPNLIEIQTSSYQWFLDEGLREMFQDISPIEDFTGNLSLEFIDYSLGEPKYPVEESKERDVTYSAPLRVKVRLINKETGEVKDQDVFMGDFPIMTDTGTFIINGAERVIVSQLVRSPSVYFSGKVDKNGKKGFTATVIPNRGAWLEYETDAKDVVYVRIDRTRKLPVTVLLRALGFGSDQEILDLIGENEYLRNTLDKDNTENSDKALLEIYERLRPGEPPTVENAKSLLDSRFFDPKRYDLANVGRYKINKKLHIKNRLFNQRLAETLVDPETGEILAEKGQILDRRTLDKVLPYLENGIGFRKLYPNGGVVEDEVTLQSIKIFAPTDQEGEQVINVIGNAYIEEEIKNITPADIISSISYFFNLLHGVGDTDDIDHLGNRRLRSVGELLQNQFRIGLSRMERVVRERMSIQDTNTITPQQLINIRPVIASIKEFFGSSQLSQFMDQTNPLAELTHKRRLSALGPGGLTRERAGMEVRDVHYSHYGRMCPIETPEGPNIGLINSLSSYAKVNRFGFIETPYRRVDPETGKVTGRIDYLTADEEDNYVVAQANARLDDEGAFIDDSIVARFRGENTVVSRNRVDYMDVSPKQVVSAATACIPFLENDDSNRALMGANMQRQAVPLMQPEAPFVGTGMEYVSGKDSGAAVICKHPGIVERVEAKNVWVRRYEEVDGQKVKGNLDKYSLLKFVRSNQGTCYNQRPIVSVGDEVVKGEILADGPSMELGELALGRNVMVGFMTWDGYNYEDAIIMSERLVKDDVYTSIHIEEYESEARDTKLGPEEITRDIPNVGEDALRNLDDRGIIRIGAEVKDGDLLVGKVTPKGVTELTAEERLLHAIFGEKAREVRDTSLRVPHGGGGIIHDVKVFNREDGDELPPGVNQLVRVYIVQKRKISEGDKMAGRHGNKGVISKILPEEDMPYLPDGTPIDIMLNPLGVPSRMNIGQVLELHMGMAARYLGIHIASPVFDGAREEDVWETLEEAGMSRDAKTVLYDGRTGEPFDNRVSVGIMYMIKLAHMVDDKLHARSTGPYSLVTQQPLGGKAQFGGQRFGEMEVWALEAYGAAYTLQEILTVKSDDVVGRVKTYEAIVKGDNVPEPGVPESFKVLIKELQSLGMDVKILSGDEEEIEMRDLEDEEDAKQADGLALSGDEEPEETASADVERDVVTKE

SigA (43 kDa) (from UniProt P06224 1-371) (natural protein)
relative fraction of RNAP bound to SigA, diamide stress: 58.1% | relative fraction of RNAP bound to SigA, no stress: 61.5%

B1: Spx (15 kDa) (natural protein)
chain: MVTLYTSPSCTSCRKARAWLEEHEIPFVERNIFSEPLSIDEIKQILRMTEDGTDEIISTRSKVFQKLNVNVESMPLQDLYRLINEHPGLLRRPIIIDEKRLQVGYNEDEIRRFLPRKVRSFQLREAQRLAN
relative fraction of RNAP bound to Spx, diamide stress: 21.6% | relative fraction of RNAP bound to Spx, no stress: 11%
